In US20150087809A1:
Like-named read-outs stand apart in the source and are kept apart here.

Assays:
[1] = molecular target: T1, HLA-A24 type molecule (product of the HLA-A*2402 gene) (human)
[2] = molecular target: T1, HLA-A24 type molecule (product of the …); remark: listed apart in the source
[3] = molecular target: T1, HLA-A24 type molecule (product of the …); remark: listed apart in the source

In the case of ILPCSFTTL (modifications not checked) [SEQ ID NO 1], the -log Kd [1] is reported as 7.66 -log Kd (M).

For LMTHFFSIL (modifications not checked) [SEQ ID NO 18], the -log Kd [1] was 5.92 -log Kd (M).

For LLKRLHQWI (modifications not checked) [SEQ ID NO 19], the -log Kd [1] was 6.86 -log Kd (M).

In the case of AYYSMVGNW (modifications not checked) [SEQ ID NO 22], the -log Kd [1] is reported as 6.47 -log Kd (M).

In the case of ILLGPADSF (modifications not checked) [SEQ ID NO 27], the -log Kd [1] is reported as 5.5 -log Kd (M).

In the case of NFSRCWVAL (modifications not checked) [SEQ ID NO 37], the -log Kd [1] is reported as 6.28 -log Kd (M).

VILDSFDPI (modifications not checked) [SEQ ID NO 2] was tested, and the -log Kd [1] was 5.32 -log Kd (M).

ITYSTYCKF (modifications not checked) [SEQ ID NO 40] was tested, and the -log Kd [1] was 6.98 -log Kd (M).

In the case of LLSTTEWQI (modifications not checked) [SEQ ID NO 42], the -log Kd [1] is reported as 8.34 -log Kd (M).

With VILDSFEPL (modifications not checked) [SEQ ID NO 45] the -log Kd [2] was 5 -log Kd (M).

For AFYGVWPLL (modifications not checked) [SEQ ID NO 49], the -log Kd [2] was 7.73 -log Kd (M).

For WHYPCTVNF (modifications not checked) [SEQ ID NO 52], the -log Kd [2] was 6.39 -log Kd (M).

In the case of GLIHLHQNI (modifications not checked) [SEQ ID NO 54], the -log Kd [2] is reported as 5.86 -log Kd (M).

With LMCAVHPEL (modifications not checked) [SEQ ID NO 55] the -log Kd [2] was 6.59 -log Kd (M).

For TVLADFKTW (modifications not checked) [SEQ ID NO 56], the -log Kd [2] was 6.52 -log Kd (M).

AQPGYPWPL (modifications not checked) [SEQ ID NO 58] was tested, and the -log Kd [2] was 5.36 -log Kd (M).

For PLLRDEVTF (modifications not checked) [SEQ ID NO 59], the -log Kd [2] was 5.09 -log Kd (M).

ILMTHFFSI (modifications not checked) [SEQ ID NO 60] was tested, and the -log Kd [2] was 7.9 -log Kd (M).

In the case of SYTWTGALI (modifications not checked) [SEQ ID NO 61], the -log Kd [2] is reported as 7.13 -log Kd (M).

With LMTHFFSIL (modifications not checked) [SEQ ID NO 64] the -log Kd [2] was 5.92 -log Kd (M).

In the case of LLKRLHQWI (modifications not checked) [SEQ ID NO 65], the -log Kd [2] is reported as 6.86 -log Kd (M).

With AYYSMVGNW (modifications not checked) [SEQ ID NO 67] the -log Kd [2] was 6.47 -log Kd (M).

For RYAPACKPL (modifications not checked) [SEQ ID NO 71], the -log Kd [2] was 6.76 -log Kd (M).

With ILLGPADSF (modifications not checked) [SEQ ID NO 75] the -log Kd [2] was 5.5 -log Kd (M).

In the case of WLRDVWDWI (modifications not checked) [SEQ ID NO 76], the -log Kd [2] is reported as 6.34 -log Kd (M).

VILDSFEPL (modifications not checked) [SEQ ID NO 84] was tested, and the -log Kd [3] was 5 -log Kd (M).

PLLRDEVTF (modifications not checked) [SEQ ID NO 87] was tested, and the -log Kd [3] was 5.09 -log Kd (M).

For TVLADFKTW (modifications not checked) [SEQ ID NO 90], the -log Kd [3] was 6.52 -log Kd (M).

For WHYPCTVNF (modifications not checked) [SEQ ID NO 92], the -log Kd [3] was 6.39 -log Kd (M).

For WHYPCTVNF (modifications not checked) [SEQ ID NO 8], the -log Kd [1] was 6.39 -log Kd (M).

For GLIHLHQNI (modifications not checked) [SEQ ID NO 94], the -log Kd [3] was 5.86 -log Kd (M).

ILMTHFFSI (modifications not checked) [SEQ ID NO 96] was tested, and the -log Kd [3] was 7.9 -log Kd (M).

In the case of AFYGVWPLL (modifications not checked) [SEQ ID NO 98], the -log Kd [3] is reported as 7.73 -log Kd (M).

For ILLGPADSF (modifications not checked) [SEQ ID NO 100], the -log Kd [3] was 5.5 -log Kd (M).

In the case of AYYSMVGNW (modifications not checked) [SEQ ID NO 102], the -log Kd [3] is reported as 6.47 -log Kd (M).

For LLKRLHQWI (modifications not checked) [SEQ ID NO 104], the -log Kd [3] was 6.86 -log Kd (M).

For WLRDVWDWI (modifications not checked) [SEQ ID NO 106], the -log Kd [3] was 6.34 -log Kd (M).

For AQPGYPWPL (modifications not checked) [SEQ ID NO 12], the -log Kd [1] was 5.36 -log Kd (M).

For ITYSTYGKF (modifications not checked) [SEQ ID NO 107], the -log Kd ([3]; remark: other sources report otherwise) was 6.37 -log Kd (M).

With SYTWTGALI (modifications not checked) [SEQ ID NO 108] the -log Kd [3] was 7.13 -log Kd (M).

In the case of LLSTTEWQI (modifications not checked) [SEQ ID NO 109], the -log Kd [3] is reported as 8.34 -log Kd (M).

With RYAPACKPL (modifications not checked) [SEQ ID NO 110] the -log Kd [3] was 6.76 -log Kd (M).

With VLADFKTWL (modifications not checked) [SEQ ID NO 112] the -log Kd [3] was 6.63 -log Kd (M).

With VFPDLGVRV (modifications not checked) [SEQ ID NO 123] the -log Kd [3] was 6.74 -log Kd (M).

For ILMTHFFSI (modifications not checked) [SEQ ID NO 13], the -log Kd [1] was 7.9 -log Kd (M).

In the case of SYTWTGALI (modifications not checked) [SEQ ID NO 14], the -log Kd [1] is reported as 7.13 -log Kd (M).
